Data published in patent US20170327594A1 (UNIVERSIT T STUTTGART, published 2017).
Values belong to the binder of their own block, whether it stands above or below them.

Columns and labels:
EGFR-Fc fusion protein [1] = target: T1, EGFR-Fc fusion protein (UniProt P00533 25-645, limits assumed); test: ELISA titration on immobilized EGFR; the scFv is the weaker comparator
T1 construct: extracellular domain; also called Fc fusion protein of the extracellular region of EGFR; immobilized EGFR; not shown: Fc part

HER2-Fc fusion protein = target: T2, HER2-Fc fusion protein (UniProt P04626 23-652, limits assumed); test: ELISA on immobilized HER2-Fc
T2 construct: extracellular domain; also called Fc fusion protein of the extracellular region of HER2; not shown: Fc part

EGFR on tumor cell lines [2] = target: T3, EGFR on tumor cell lines (UniProt P00533 25-1210, limits assumed); test: flow cytometry, Colo205 and NCI-H460 cells
T3 construct: whole, on cells; Endogenous receptor of tumor cell lines; also called EGFR on A431, HT1080, NCI-H460, Colo205 cells

EGFR-Fc fusion protein [3] = target: T1, EGFR-Fc fusion protein; test: ELISA on immobilized EGFR-Fc
HER3-Fc fusion protein = target: T4, HER3-Fc fusion protein (UniProt P21860 20-643, limits assumed); test: ELISA on immobilized receptor-Fc
T4 construct: extracellular domain; Negative control; also called Fc fusion protein of the extracellular region of HER3; not shown: Fc part

EGFR-Fc fusion protein [4] = target: T1, EGFR-Fc fusion protein; test: ELISA on immobilized receptor-Fc
EGFR on tumor cell lines [5] = target: T3, EGFR on tumor cell lines; test: flow cytometry, NCI-H460 cells
Protocol: Bound proteins were detected with a FITC-labelled anti-His-tag antibody.
Furthermore, the antibody-MHD2 fusion proteins were analyzed by flow cytometry for binding to different tumor cell lines expressing various amounts of EGFR and HER2 (FIG. 4b).

[6] = target: T5, recombinant TRAIL-R1 (receptor-Fc fusion protein) (UniProt O00220 24-239, limits assumed); test: ELISA on recombinant receptor-Fc
T5 construct: also called TRAIL receptor 1; not shown: Fc part

EGFR on tumor cell lines [7] = target: T3, EGFR on tumor cell lines; test: cell-based or functional assay
EGFR on tumor cell lines [8] = target: T3, EGFR on tumor cell lines; test: cell-based or functional assay; remark: listed apart in the source

binding result (EGFR-Fc fusion protein [1]): binds
B1: anti-EGFR scFv (hu225) (scFv)
scFv: EVQLVESGGGLVQPGGSLRLSCAASGFSLTNYGVHWVRQAPGKGLEWLGVIWSGGNTDYNTPFTSRFTISRDNSKNTLYLQMNSLRAEDTAVYYCARALTYYDYEFAYWGQGTTVTVSSGGGGSGGGGSGGGGSDIQLTQSPSFLSASVGDRVTITCRASQSIGTNIHWYQQKPGKAPKLLIKYASESISGVPSRFSGSGSGTEFTLTISSLQPEDFATYYCQQNNNWPTTFGAGTKLEIKR
notes: also called monovalent anti-EGFR scFv; scFv directed against EGFR

binding result (HER2-Fc fusion protein): no binding
binding result (EGFR on tumor cell lines [2]): binds
binding result (EGFR-Fc fusion protein [3]): binds
B2: scFvEGFR-EHD2 (scFv)
chain: DAAQPAMAEVQLVESGGGLVQPGGSLRLSCAASGFSLTNYGVHWVRQAPGKGLEWLGVIWSGGNTDYNTPFTSRFTISRDNSKNTLYLQMNSLRAEDTAVYYCARALTYYDYEFAYWGQGTTVTVSSGGGGSGGGGSGGGGSDIQLTQSPSFLSASVGDRVTITCRASQSIGTNIHWYQQKPGKAPKLLIKYASESISGVPSRFSGSGSGTEFTLTISSLQPEDFATYYCQQNNNWPTTFGAGTKLEIKRGSLGGSGGDFTPPTVKILQSSCDGGGHFPPTIQLLCLVSGYTPGTINITWLEDGQVMDVDLSTASTTQEGELASTQSELTLSQKHWLSDRTYTCQVTYQGHTFEDSTKKCADSNGGGSGGGTGSEFAAAHHHHHH
notes: Bivalent homodimer: anti-EGFR scFv at the N-terminus of the IgE heavy chain domain 2, hexahistidyl-tagged; also called scFv-EHD2

binding result (HER3-Fc fusion protein): no binding
binding result (EGFR-Fc fusion protein [4]): binds
binding result (EGFR on tumor cell lines [5]): binds
B3: scFvEGFR-MHD2 (scFv)
chain: DAAQPAMAEVQLVESGGGLVQPGGSLRLSCAASGFSLTNYGVHWVRQAPGKGLEWLGVIWSGGNTDYNTPFTSRFTISRDNSKNTLYLQMNSLRAEDTAVYYCARALTYYDYEFAYWGQGTTVTVSSGGGGSGGGGSGGGGSDIQLTQSPSFLSASVGDRVTITCRASQSIGTNIHWYQQKPGKAPKLLIKYASESISGVPSRFSGSGSGTEFTLTISSLQPEDFATYYCQQNNNWPTTFGAGTKLEIKRGSLGGSGGAELPPKVSVFVPPRDGFFGNPRKSKLICQATGFSPRQIQVSWLREGKQVGSGVTTDQVQAEAKESGPTTYKVTSTLTIKESDWLGQSMFTCRVDHRGLTFQQNASSMCVPDGGGSGGGTGSEFAAAHHHHHH
notes: Bivalent homodimer: humanized anti-EGFR scFv (hu225) at the N-terminus of the IgM heavy chain domain 2, C-terminal His6; also called scFvA-MHD2; scFv-MHD2

binding result (HER2-Fc fusion protein): no binding
binding result [6]: binds
B4: scFvEGFR-EHD2-scTRAIL (other)
chain: DYKDDDDKGGGGSAAQPAMAEVQLVESGGGLVQPGGSLRLSCAASGFSLTNYGVHWVRQAPGKGLEWLGVIWSGGNTDYNTPFTSRFTISRDNSKNTLYLQMNSLRAEDTAVYYCARALTYYDYEFAYWGQGTTVTVSSGGGGSGGGGSGGGGSDIQLTQSPSFLSASVGDRVTITCRASQSIGTNIHWYQQKPGKAPKLLIKYASESISGVPSRFSGSGSGTEFTLTISSLQPEDFATYYCQQNNNWPTTFGAGTKLEIKRAAAGGSGGDFTPPTVKILQSSCDGGGHFPPTIQLLCLVSGYTPGTINITWLEDGQVMDVDLSTASTTQEGELASTQSELTLSQKHWLSDRTYTCQVTYQGHTFEDSTKKCADSNGGSGGEFTRGTSEETISTVQEKQQNISPLVRERGPQRVAAHITGTRGRSNTLSSPNSKNEKALGRKINSWESSRSGHSFLSNLHLRNGELVIHEKGFYYIYSQTYFRFQEEIKENTKNDKQMVQYIYKYTSYPDPILLMKSARNSCWSKDAEYGLYSIYQGGIFELKENDRIFVSVTNEHLIDMDHEASFFGAFLVGGGGSGGGSTSEETISTVQEKQQNISPLVRERGPQRVAAHITGTRGRSNTLSSPNSKNEKALGRKINSWESSRSGHSFLSNLHLRNGELVIHEKGFYYIYSQTYFRFQEEIKENTKNDKQMVQYIYKYTSYPDPILLMKSARNSCWSKDAEYGLYSIYQGGIFELKENDRIFVSVTNEHLIDMDHEASFFGAFLVGGGGSGGGSTSEETISTVQEKQQNISPLVRERGPQRVAAHITGTRGRSNTLSSPNSKNEKALGRKINSWESSRSGHSFLSNLHLRNGELVIHEKGFYYIYSQTYFRFQEEIKENTKNDKQMVQYIYKYTSYPDPILLMKSARNSCWSKDAEYGLYSIYQGGIFELKENDRIFVSVTNEHLIDMDHEASFFGAFLVG
notes: Homodimer: anti-EGFR scFv, EHD2, single-chain TRAIL, FLAG-tagged; also called scFv-EHD2-scTRAIL; anti-EGFR scFv-EHD2-scTRAIL
IC50 (nM), in vitro cytotoxicity, Colo205, no bortezomib, no cetuximab (EGFR on tumor cell lines [7]): 0.5 nM
IC50 (nM), in vitro cytotoxicity, Colo205, with bortezomib, no cetuximab (EGFR on tumor cell lines [7]): 0.14 nM
IC50 (nM), in vitro cytotoxicity, Colo205, with bortezomib, with cetuximab (EGFR on tumor cell lines [7]): 1.43 nM
IC50 (nM), in vitro cytotoxicity, NCI-H460, no bortezomib, no cetuximab (EGFR on tumor cell lines [7]): 0.32 nM
IC50 (nM), in vitro cytotoxicity, NCI-H460, with bortezomib, no cetuximab (EGFR on tumor cell lines [7]): 0.02 nM
IC50 (nM), in vitro cytotoxicity, NCI-H460, with bortezomib, with cetuximab (EGFR on tumor cell lines [7]): 0.15 nM
cytotoxic activity against EHD2-scTRAIL, no bortezomib (NCI-H460, Colo205) (EGFR on tumor cell lines [8]): ~20 fold
